T1: recombinant UBE2G2 (UniProt P60604 1-165)
T1 construct: UBE2G2, ubiquitin-conjugating enzyme E2 G2, recombinant; Called His-UBE2G2 only in the charging assays; no tag is named for the pull-downs; also called His-UBE2G2; source: bought: R&D Systems (E2-680-100)
T1 sequence: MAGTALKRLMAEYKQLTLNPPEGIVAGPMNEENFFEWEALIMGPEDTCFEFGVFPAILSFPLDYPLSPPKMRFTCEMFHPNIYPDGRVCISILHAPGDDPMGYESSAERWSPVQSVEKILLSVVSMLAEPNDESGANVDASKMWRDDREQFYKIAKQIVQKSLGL

T2: recombinant UBE2K (UniProt P61086 1-200)
T2 construct: UBE2K, ubiquitin-conjugating enzyme E2 K, recombinant; source: bought: R&D Systems (NBP2-35096)
T2 sequence (looked up): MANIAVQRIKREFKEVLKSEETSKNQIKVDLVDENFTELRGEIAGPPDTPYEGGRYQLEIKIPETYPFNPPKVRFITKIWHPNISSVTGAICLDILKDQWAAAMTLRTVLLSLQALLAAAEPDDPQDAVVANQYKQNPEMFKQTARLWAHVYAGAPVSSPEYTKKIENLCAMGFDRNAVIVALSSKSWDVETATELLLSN

B1: MBP-UFD (942-1058) (domain or fragment)
chain: not shown
notes: UBA1 C-terminal ubiquitin fold domain (UFD), aa942-1058; The pull-down methods name the construct 'AAD-UFD'; also called UFD fragment of UBA1
B2: MBP-UFD (C1039A) (domain or fragment)
chain: not shown
notes: UBA1 ubiquitin fold domain (UFD), aa942-1058, with C1039A; also called MBP-UFD with cysteine mutation; source: recombinant
B3: MBP-UFD (C1040A) (domain or fragment)
chain: not shown
notes: UBA1 ubiquitin fold domain (UFD), aa942-1058, with C1040A; also called MBP-UFD with cysteine mutation; source: recombinant

Assays:
[1] = target: T1, recombinant UBE2G2; experiment: pull-down; MBP fusions of UBA1 fragments (5 ug) on beads, treated with AF 1.5 h and washed, then incubated with recombinant E2 2 h at room temperature in 150 mM NaCl, 10 mM Tris/HCl pH 7.4, 1 mM EDTA, 1 mM EGTA, 0.2% NP-40; immunoblot; in Fig. 2a also after iodoacetamide or with DTT; conditions: both partners purified
[2] = target: T2, recombinant UBE2K; experiment: as above; conditions: both partners purified

Row | Binder | binding result [1] | binding result [2]
1 | B1 | binds | binds
2 | B2 | binds | 
3 | B3 | binds | 

From publication PMC10412574, “Auranofin targets UBA1 and enhances UBA1 activity by facilitating ubiquitin trans-thioesterification to E2 ubiquitin-conjugating enzymes” (Nature Communications, 2023)
